The values that follow come from PMC6037669, “Optimization of a MT1-MMP-targeting Peptide and Its Application in Near-infrared Fluorescence Tumor Imaging” (Scientific Reports, 2018).

For series [1], the system named is MT1-MMP. The experiment in a line: AFM force curve measurement, peptide on tip against immobilized MT1-MMP. The class given is binding, human. The note with it: 25 °C; for Binding force (peak position of force histogram): peptide on AFM tip via NHS-PEG18-aldehyde, MT1-MMP on APTES mica, PBS, 300 force curves, Gaussian fit. The protocol: (§1) The MT1-MMP catalytic domain (20 kDa) was expressed in Escherichia coli (E. coli) as inclusion bodies. The activated form was produced through refold method. The recombinant human MT1-MMP catalytic domain was produced by E. coli BL21 that carried expression plasmids. The bacteria were grown to an optical density of 0.4 at 37 °C prior to induction. The overexpression of the protein of interest was induced by adding […] to a final concentration of 0.5 mM. Cultivation was proceeded for 4 h before the bacteria were broken by an ultrasonic wave. The inclusion bodies (proMT1-MMP) were solubilized and purified through his-tag affinity chromatography (General Electric, USA), as well as refolded by using dialysis bags to gradually reduce high denaturant concentrations in this process. The refolding buffer included 50 mM HEPES, 10 mM CaCl2, 200 mM NaCl, 1 mM phenylmethylsulfonyl fluoride, 20 μM ZnCl2, 0.01% Brij-35, 5% Glycerol, 100 μg/ml DNase, at a pH 7.5.
The surface layer of the mica was stripped to expose the silanol group-coated surface. Then, the mica was treated with 3-aminopropyltriethoxysilane (APTES, vapor) for 1.5 h at room temperature and dried in vacuum. To immobilize the protein or the peptide, the activated mica surface was immerged into MT1-160p or MT1-MMP solution (300 µg/mL in PBS) for 15 min, rinsed and kept in PBS buffer.
AFM cantilever tips (MSCT) were purchased from Veeco (CA). The polypeptides were covalently immobilized on the tips by using chemical reactions as previously described. […]
The force curves were measured by using a PicoPSM 5500 instrument (Agilent Technologies, MA). […] The interaction force were detected at different points on the substrate. Over 1,000 force–distance cycles were collected, and a total of 300 force curves were recorded at different positions on the substrate. The average force values were summarized and calculated in the form of histograms and were expressed as a probability (%), which was obtained by dividing each count number by the total number of measured force curves.

Series [2] relates to MDA-MB-435 tumors (MT1-MMP). As for the experimental part:
The mice were injected with 1 nM Cy5.5-peptide to evaluate the distribution of affinity peptides in tumor tissues and major organs. At 4 h post-injection, the tumor-bearing mice were sacrificed, and their major organs, tissues, and tumors were harvested and placed on a black paper for ex vivo imaging (IVIS Lumina II, Caliper Life Sciences, MA, USA). The results were presented as the average scaled signal from the organs and the tumors.

A short description of series [3]: Whole-body small animal near-infrared fluorescence imaging. The note with it: athymic nude BALB/c, mouse, in vivo, iv. As for the experimental part: (§2) All of the animal experiments were conducted in accordance with the principles and procedures outlined in the ethics committee of Jilin University, and approved by Animal Care and Use Committee (CC/ACUCC) of Xiamen University. Subcutaneous sites of athymic nude mice (BALB/c, 6 weeks old, female, 19–21 g) were injected with a suspension of 1 × 10^7 breast carcinoma MDA-MB-435 cells in PBS (100 μL). Tumor growth was assessed with caliper measurements every 2 days, and tumor size was determined using the formula: V = a^*(b^2)/2, where a is the maximum length and b is the maximum width of each tumor in mm respectively. The tumor-bearing mice (n = 5/group) were subjected to optical imaging experiments once the tumor volume (in the right front leg region) reached average size of 200 mm^3 (Error less than 18 mm^3), mice were randomly allocated into three groups: Cy5.5-MT1-AF7p-H4R, Cy5.5-MT1-AF7p-H4R-Block or Cy5.5-MT1-AF7p were injected via their tail vein with […]. Fluorescent images and analysis were performed by using an IVIS Lumina II imaging system (Caliper Life Sciences, MA, USA; Excitation Filter: 630 nm, Emission Filter: 700 nm) at different time point post-injection (1, 2, 4, 6, 12, and 24 h). During injection and image acquiring process, mice were anesthetized with 2.5% isoflurane in oxygen at a flow of 1.5 L/min. Images were normalized to the same scale and analyzed. For semi-quantitative comparison, the regions of interest (ROI) were drawn over the tissues of interest, and the scaled average signal (photons cm^−2 s^−1) for each area was measured. Fluorescent signals from ROI were further corrected by the mice body weights. Results were presented as the mean ± SD for a group of five animals.

Series [4] relates to MDA-MB-435 tumors (MT1-MMP). The description is as above. The protocol: as §2
The subject of series [5] is MT1-MMP. The experiment in a line: Isothermal titration calorimetry. More on the design: species or system human. The note with it: 25 °C; 10 mM HEPES, 150 mM NaCl, pH 7.4; 1000 rpm; one-site binding model. As for the experimental part: The ITC experiments were conducted by using a MicroCal ITC-200 system (General Electric, USA) to determine the thermodynamic parameters of the polypeptides. The peptide of interest was dissolved in 10 mM HEPES and 150 mM NaCl solution at pH 7.4. All titrations were performed at 25 °C by injecting aliquots of a 40 μL MT1-160p (1 mM) degassed solution in a syringe into the calorimeter cell containing 200 μL of binding peptides (0.1 mM) degassed solution at a stirring rate of 1000 rpm. The baseline was corrected manually and the heat data were processed by fitting the ITC data into the NanoAnalyze software.
In general terms: ITC needs no label: the signal is the heat of the interaction.

In series [6] the test system is MDA-MB-435 tumors (MT1-MMP). The note with it: cited from earlier work. As for the experimental part: Among the mutated peptides selected by virtual screening and docking based on the calculated lowest binding energy, the binding affinities were tested by conducting AFM, ITC, and cell fluorescence imaging in vitro. The tumor targeting effects of the optimal peptide were further confirmed by performing an in vivo imaging experiment in a tumor-bearing mice model.

Series [7] concerns DQ-gelatin from pig skin. The experiment in a line: Enzymatic activity of recombinant MT1-MMP. The class given is biochemical. The conditions noted are these: refolded recombinant catalytic domain; unit not given. The protocol:
as §1, with “The refolding buffer included 50 mM HEPES, 10 mM CaCl2, 200 mM NaCl, 1 mM phenylmethylsulfonyl fluoride, 20 μM ZnCl2, 0.01% Brij-35, 5% Glycerol, 100 μg/ml DNase, at a pH 7.5.” left out
The protein samples from induced lysates, inclusion bodies and renaturation were separated by 15% reducing sodium dodecyl sulfate–polyacrylamide gel electrophoresis (SDS–PAGE) gel followed by Coomassie Brilliant Blue R-250 (CBB) staining. Protein concentration was measured at each step by the BCA Protein Assay Kit (Thermo Scientific, USA) according to manufacturer’s instructions. After renaturation of MT1-MMP, the enzymatic activity of the recombinant MT1-MMP was measured by using fluorescein conjugated substrate, DQ™-gelatin from pig skin (Molecular Probes).

Ends that are not written are not given here. Peptide text beside a SMILES is read from it. * marks the point of attachment. X1 = CC[N+]1=C(C=CC=CC=C2N(CCCCCC(=O)*)c3ccc4c(S(=O)(=O)O)cc(S(=O)(=O)O)cc4c3C2(C)C)C(C)(C)c2c1ccc1c(S(=O)(=O)O)cc(S(=O)(=O)[O-])cc21

Turning to `CC[N+]1=C(C=CC=CC=C2N(CCCCCC(=O)N[C@@H](Cc3c[nH]cn3)C(=O)N[C@@H](Cc3c[nH]c4ccccc34)C(=O)N[C@@H](CCCCN)C(=O)N[C@@H](CCCNC(=N)N)C(=O)N[C@@H](CC(C)C)C(=O)N[C@@H](Cc3c[nH]cn3)C(=O)N[C@@H](CC(N)=O)C(=O)N[C@H](C(=O)N[C@@H](CCCCN)C(=O)N[C@H](C(=O)N[C@@H](Cc3ccccc3)C(=O)N[C@@H](CC(C)C)C(=O)O)[C@@H](C)O)[C@@H](C)O)c3ccc4c(S(=O)(=O)O)cc(S(=O)(=O)O)cc4c3C2(C)C)C(C)(C)c2c1ccc1c(S(=O)(=O)O)cc(S(=O)(=O)[O-])cc21` [Cy5.5-MT1-AF7p-H4R] (X1-HWKRLHNTKTFL-OH; C-terminus assumed), in series [1], the “Binding force (peak position of force histogram)” value turned out to be 260 pN. For the same compound, the “Clearance route” value in series [2] (4 h post-injection, ex vivo quantification) was “prominent renal clearance”. Further, in series [2] (4 h post-injection, i.v. 1 nM Cy5.5-peptide, average scaled signal), the “Tumor fluorescent signal ex vivo” value is recorded as 8.04 × 10^7. For the same compound, the “Tumor fluorescent signal relative to MT1-AF7p” value in series [2] (4 h post-injection, 8.04 × 10^7 vs. 2.51 × 10^7) came to 3.2 times. Further, the “Fluorescent signals in blocking group” value in series [2] (ex vivo, blocked with excess free MT1-AF7p-H4R) is “very few fluorescent signals were detected in the blocking group”. In addition, in series [3], the tissue to tissue ratio at 1 h was found to be 1.22 ± 0.22, the tissue to tissue ratio at 2 h turned out to be 2.77 ± 0.31 and the tissue to tissue ratio at 4 h was 4.26 ± 0.56. Moreover, the “Tumor signal after blocking with free peptide” value in series [4] (excess free MT1-AF7p-H4R (1 μM) injected 30 min prior) was “Low Cy5.5-MT1-AF7p-H4R accumulation was observed”. Also, the “Time of maximum tumor accumulation (T/M)” value in series [4] (i.v., MDA-MB-435 tumor) is recorded as 4 h. For the same compound, the “Binding constant (Ka)” value in series [5] was determined as 175000 M⁻¹.

Take `CC[N+]1=C(C=CC=CC=C2N(CCCCCC(=O)N[C@@H](Cc3c[nH]cn3)C(=O)N[C@@H](Cc3c[nH]c4ccccc34)C(=O)N[C@@H](CCCCN)C(=O)N[C@@H](Cc3c[nH]cn3)C(=O)N[C@@H](CC(C)C)C(=O)N[C@@H](Cc3c[nH]cn3)C(=O)N[C@@H](CC(N)=O)C(=O)N[C@H](C(=O)N[C@@H](CCCCN)C(=O)N[C@H](C(=O)N[C@@H](Cc3ccccc3)C(=O)N[C@@H](CC(C)C)C(=O)O)[C@@H](C)O)[C@@H](C)O)c3ccc4c(S(=O)(=O)O)cc(S(=O)(=O)O)cc4c3C2(C)C)C(C)(C)c2c1ccc1c(S(=O)(=O)O)cc(S(=O)(=O)[O-])cc21` [Cy5.5-MT1-AF7p] (X1-HWKHLHNTKTFL-OH; C-terminus assumed): the “Binding force (peak position of force histogram)” value in series [1] stood at 150 pN. Moreover, the “Tumor accumulation in MDA-MB-435 xenografts” value in series [6] (compared with negative control) was “significantly higher tumor accumulation”. Besides, the tissue to tissue ratio at 4 h in series [3] amounted to 1.98. Besides, the “Binding constant (Ka)” value in series [5] turned out to be 107000 M⁻¹.

For Cy5.5 [reference compound], the “Tumor accumulation of free dye” value in series [6] (within 48 h post-injection) was “did not accumulate in the tumor site within 48 h post-injection”.

On to HWKHLHNTKTFL [MT1-AF7p], for which the “Binding constant (Ka)” value in series [5] was found to be 107000 M⁻¹.

As for “HWKKLHNTKTFL [MT1-AF7p-H4K, MT1-AF7p with histidine 4 mutated to Lys]”, the “Affinity to MT1-MMP by AFM” value in series [1] (single-molecule recognition force spectroscopy) was “had a nearly identical binding capacity with MT1-MMP than MT1-AF7P”.

For “HWKRLHNTKTFL [MT1-AF7p-H4R, HWKRLHNTKTFL]”, the “Specificity and affinity to MT1-MMP in optical imaging in vivo” value in series [4] (compared with MT1-AF7p) is “higher specificity and affinity to the receptor (MT1-MMP) in optical imaging in vivo”. Further, in series [4] (i.v. tail vein, 10 μM (1 nM in 100 μL PBS), Cy5.5-labeled, p ≤ 0.01, n = 5/group), the “Tumor imaging effect vs MT1-AF7p” value is recorded as “better than MT1-AF7p (p ≤ 0.01)”. Further, in series [4] (i.v. tail vein, all time points from 2 h to 24 h, Cy5.5-labeled, n = 5/group), the “Fluorescence intensity in tumor site vs MT1-AF7p” value was “considerably stronger than that of MT1-AF7p at all the time points from 2 h to 24 h”.

For the compound “MT1-MMP: recombinant human MT1-MMP catalytic domain (20 kDa) refolded from E. coli inclusion bodies”, the “Enzymatic activity against DQ-gelatin” value in series [7] is recorded as 9.81 × 10^6.
